Laboratory results from patent US20180009867A1.

Biological target: IL-1 receptor
Test: SPR, immobilized IL-1 receptor

Kd [nM] | Substance
0.23 | mutant chicken interleukin-1β protein having T117A mutation (ligand)
0.37 | mutant chicken interleukin-1β protein having E118K mutation (ligand)
0.12 | wild-type chicken interleukin-1β (ligand)
